Experimental findings from US20150376271 (published 2015) are described below.

Values joined by “and” are separate entries in the source; they are usually repeats but may differ in a detail not shown here. Equal entries are not always repeated. Where two headings read alike, the source gives them in different places.

For orientation: Kd means the equilibrium constant for the complex coming apart. A higher Kd goes with weaker binding. As a reminder, the IC50 is the point on the concentration scale where inhibition reaches its midpoint.

In one experiment the target is T1, PDGF-BB (human, UniProt P01127).
T1 chain: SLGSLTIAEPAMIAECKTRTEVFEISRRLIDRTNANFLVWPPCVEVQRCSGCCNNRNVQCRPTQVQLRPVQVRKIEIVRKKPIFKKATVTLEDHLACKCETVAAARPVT
The experiment in a line: SPR, 25C. (SPR reads the build-up and loss of mass on a sensor chip optically.)

Experiment [1] concerns the target T2, VEGF121 (human, UniProt P15692).
T2 chain: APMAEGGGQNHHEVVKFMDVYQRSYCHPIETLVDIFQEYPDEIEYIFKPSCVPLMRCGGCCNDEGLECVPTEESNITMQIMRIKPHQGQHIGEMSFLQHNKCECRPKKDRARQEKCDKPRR
Nature of the experiment: SPR.

Experiment [2] concerns the target T2, VEGF121. The experiment in a line: SPR.
Experiment [3] addresses T3, VEGFA-165 (human, UniProt P15692).
T3 chain: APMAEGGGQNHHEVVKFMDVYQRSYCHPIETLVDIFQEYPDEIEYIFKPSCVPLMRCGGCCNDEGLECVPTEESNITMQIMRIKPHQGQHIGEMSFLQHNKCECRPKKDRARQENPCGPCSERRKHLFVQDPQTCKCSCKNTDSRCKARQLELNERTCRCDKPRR
Nature of the experiment: competition.

Experiment [4] deals with T3, VEGFA-165. The experiment in a line: SPR.
In experiment [5] the target is T3, VEGFA-165. Nature of the experiment: competition.

B1: OG1321 (antibody)
chain 1: LVVTPPGPELVLNVSSTFVLTCSGSAPVVWERMSQEPPQEMAKAQDGTFSSVLTLTNLTGLDTGEYFCTHNDSRGLETDERKRLYIFVPDPTVGFLPNDAEELFIFLTEITEITIPCRVTDPQLVVTLHEKKGDVALPVPYDHQRGFSGIFEDRSYICKTTIGDREVDSDAYYVYRLQVSSINVSVNAVQTVVRQGENITLMCIVIGNEVVNFEWTYPRKESGRLVEPVTDFLLDMPYHIRSILHIPSAELEDSGTYTCNVTESVNDHQDEKAINITVVESGGGGGSGGGGSEVQLVESGGGLVQPGGSLRLSCAASGYDFTHYGMNWVRQAPGKGLEWVGWINTYTGEPTYAADFKRRFTFSLDTSKSTAYLQMNSLRAEDTAVYYCAKYPYYYGTSHWYFDVWGQGTLVTVSSASTKGPSVFPLAPSSKSTSGGTAALGCLVKDYFPEPVTVSWNSGALTSGVHTFPAVLQSSGLYSLSSVVTVPSSSLGTQTYICNVNHKPSNTKVDKKVEPKSCDKTHTCPPCPAPEAAGAPSVFLFPPKPKDTLMISRTPEVTCVVVDVSHEDPEVKFNWYVDGVEVHNAKTKPREEQYNSTYRVVSVLTVLHQDWLNGKEYKCKVSNKALPAPIEKTISKAKGQPREPQVYTLPPSREEMTKNQVSLTCLVKGFYPSDIAVEWESNGQPENNYKTTPPVLDSDGSFFLYSKLTVDKSRWQQGNVFSCSVMHEALHNHYTQKSLSCSPGK
chain 2: not shown
modifications: TAF443 protein, unconjugated
As for B1, in the experiment with PDGF-BB, the Kd amounted to 14 pM.

B2: TAF443 (antibody)
chain 1: LVVTPPGPELVLNVSSTFVLTCSGSAPVVWERMSQEPPQEMAKAQDGTFSSVLTLTNLTGLDTGEYFCTHNDSRGLETDERKRLYIFVPDPTVGFLPNDAEELFIFLTEITEITIPCRVTDPQLVVTLHEKKGDVALPVPYDHQRGFSGIFEDRSYICKTTIGDREVDSDAYYVYRLQVSSINVSVNAVQTVVRQGENITLMCIVIGNEVVNFEWTYPRKESGRLVEPVTDFLLDMPYHIRSILHIPSAELEDSGTYTCNVTESVNDHQDEKAINITVVESGGGGGSGGGGSEVQLVESGGGLVQPGGSLRLSCAASGYDFTHYGMNWVRQAPGKGLEWVGWINTYTGEPTYAADFKRRFTFSLDTSKSTAYLQMNSLRAEDTAVYYCAKYPYYYGTSHWYFDVWGQGTLVTVSSASTKGPSVFPLAPSSKSTSGGTAALGCLVKDYFPEPVTVSWNSGALTSGVHTFPAVLQSSGLYSLSSVVTVPSSSLGTQTYICNVNHKPSNTKVDKKVEPKSCDKTHTCPPCPAPEAAGAPSVFLFPPKPKDTLMISRTPEVTCVVVDVSHEDPEVKFNWYVDGVEVHNAKTKPREEQYNSTYRVVSVLTVLHQDWLNGKEYKCKVSNKALPAPIEKTISKAKGQPREPQVYTLPPSREEMTKNQVSLTCLVKGFYPSDIAVEWESNGQPENNYKTTPPVLDSDGSFFLYSKLTVDKSRWQQGNVFSCSVMHEALHNHYTQKSLSCSPGK
chain 2: not shown
As to B2, the Kd with VEGF121 [1] was 230 pM and 219 pM; with VEGF121 [2], 224 pM.

B3: OG1321 (antibody)
chain 1: LVVTPPGPELVLNVSSTFVLTCSGSAPVVWERMSQEPPQEMAKAQDGTFSSVLTLTNLTGLDTGEYFCTHNDSRGLETDERKRLYIFVPDPTVGFLPNDAEELFIFLTEITEITIPCRVTDPQLVVTLHEKKGDVALPVPYDHQRGFSGIFEDRSYICKTTIGDREVDSDAYYVYRLQVSSINVSVNAVQTVVRQGENITLMCIVIGNEVVNFEWTYPRKESGRLVEPVTDFLLDMPYHIRSILHIPSAELEDSGTYTCNVTESVNDHQDEKAINITVVESGGGGGSGGGGSEVQLVESGGGLVQPGGSLRLSCAASGYDFTHYGMNWVRQAPGKGLEWVGWINTYTGEPTYAADFKRRFTFSLDTSKSTAYLQMNSLRAEDTAVYYCAKYPYYYGTSHWYFDVWGQGTLVTVSSASTKGPSVFPLAPSSKSTSGGTAALGCLVKDYFPEPVTVSWNSGALTSGVHTFPAVLQSSGLYSLSSVVTVPSSSLGTQTYICNVNHKPSNTKVDKKVEPKSCDKTHTCPPCPAPEAAGAPSVFLFPPKPKDTLMISRTPEVTCVVVDVSHEDPEVKFNWYVDGVEVHNAKTKPREEQYNSTYRVVSVLTVLHQDWLNGKEYKCKVSNKALPAPIEKTISKAKGQPREPQVYTLPPSREEMTKNQVSLTCLVKGFYPSDIAVEWESNGQPENNYKTTPPVLDSDGSFFLYSKLTVDKSRWQQGNVFSCSVMHEALHNHYTQKSLSCSPGK
chain 2: not shown
The molecule B3 gave an IC50 with VEGFA-165 [3] of 12500 pM. Moreover, the Kd with VEGFA-165 [4] came out at 9.8 pM.

B4: OG1448 (antibody)
chain 1: LVVTPPGPELVLNVSSTFVLTCSGSAPVVWERMSQEPPQEMAKAQDGTFSSVLTLTNLTGLDTGEYFCTHNDSRGLETDERKRLYIFVPDPTVGFLPNDAEELFIFLTEITEITIPCRVTDPQLVVTLHEKKGDVALPVPYDHQRGFSGIFEDRSYICKTTIGDREVDSDAYYVYRLQVSSINVSVNAVQTVVRQGENITLMCIVIGNEVVNFEWTYPRKESGRLVEPVTDFLLDMPYHIRSILHIPSAELEDSGTYTCNVTESVNDHQDEKAINITVVESGGGGGSGGGGSEVQLVESGGGLVQPGGSLRLSCAASGYDFTHYGMNWVRQAPGKGLEWVGWINTYTGEPTYAADFKRRFTFSLDTSKSTAYLQMNSLRAEDTAVYYCAKYPYYYGTSHWYFDVWGQGTLVTVSSASTKGPSVFPLAPSSKSTSGGTAALGCLVKDYFPEPVTVSWNSGALTSGVHTFPAVLQSSGLYSLSSVVTVPSSSLGTQTYICNVNHKPSNTKVDKKVEPKSCDKTHTCPPCPAPEAAGAPSVFLFPPKPKDTLMISRTPEVTCVVVDVSHEDPEVKFNWYVDGVEVHNAKTKPREEQYNSTYRVVSVLTVLHQDWLNGKEYKCKVSNKALPAPIEKTISKAKGQPREPQVYTLPPSREEMTKNQVSLTCLVKGFYPSDIAVEWESNGQPENNYKTTPPVLDSDGSFFLYSKLTVDKSRWQQGNVFSCSVMHEALHNHYTQKSLSCSPGK
chain 2: not shown
Regarding B4, the IC50 worked out at 8500 pM in the experiment with VEGFA-165 [3] and 10100 pM with VEGFA-165 [5]. Besides, in the experiment with VEGFA-165 [4], binding was put at a Kd of 5.1 pM.

B5: TAF347 (antibody)
chain 1: LVVTPPGPELVLNVSSTFVLTCSGSAPVVWERMSQEPPQEMAKAQDGTFSSVLTLTNLTGLDTGEYFCTHNDSRGLETDERKRLYIFVPDPTVGFLPNDAEELFIFLTEITEITIPCRVTDPQLVVTLHEKKGDVALPVPYDHQRGFSGIFEDRSYICKTTIGDREVDSDAYYVYRLQVSSINVSVNAVQTVVRQGENITLMCIVIGNEVVNFEWTYPRKESGRLVEPVTDFLLDMPYHIRSILHIPSAELEDSGTYTCNVTESVNDHQDEKAINITVVESGGGGGSGGGGSEVQLVESGGGLVQPGGSLRLSCAASGYDFTHYGMNWVRQAPGKGLEWVGWINTYTGEPTYAADFKRRFTFSLDTSKSTAYLQMNSLRAEDTAVYYCAKYPYYYGTSHWYFDVWGQGTLVTVSSASTKGPSVFPLAPSSKSTSGGTAALGCLVKDYFPEPVTVSWNSGALTSGVHTFPAVLQSSGLYSLSSVVTVPSSSLGTQTYICNVNHKPSNTKVDKKVEPKSCDKTHTCPPCPAPEAAGAPSVFLFPPKPKDTLMISRTPEVTCVVVDVSHEDPEVKFNWYVDGVEVHNAKTKPREEQYNSTYRVVSVLTVLHQDWLNGKEYKCKVSNKALPAPIEKTISKAKGQPREPCVYTLPPSREEMTKNQVSLTCLVKGFYPSDIAVEWESNGQPENNYKTTPPVLDSDGSFFLYSKLTVDKSRWQQGNVFSCSVMHEALHNHYTQKSLSLSPGK
chain 2: not shown
Turning to B5, the Kd with VEGF121 [1] was 280 pM and 182 pM; with VEGF121 [2], 231 pM.
